Results on four molecules are retold here after paper PMC8514121 (Science signaling, 2020).

For series [1], the target named is T1, Aurora A kinase domain (residues 116 to 389) (human, UniProt O14965 116-389).
T1 sequence (looked up): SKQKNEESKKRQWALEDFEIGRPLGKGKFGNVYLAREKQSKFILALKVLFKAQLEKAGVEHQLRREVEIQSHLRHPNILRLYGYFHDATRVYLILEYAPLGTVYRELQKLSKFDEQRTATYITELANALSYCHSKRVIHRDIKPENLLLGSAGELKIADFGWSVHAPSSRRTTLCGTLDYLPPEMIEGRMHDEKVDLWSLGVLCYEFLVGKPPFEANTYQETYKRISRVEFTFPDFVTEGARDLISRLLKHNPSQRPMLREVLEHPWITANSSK
In words: crystal structure.

The series “crystal structure” deals with the molecule itself. In words: crystal structure.
The series “cross-linking” deals with the molecule itself. In words: cross-linking.

Consider SYSYDAPSDFINFS (domain or fragment, UniProt Q9ULW0 7-20, looked up) [TPX2 fragment (residues 7 to 20)], for which, in series [1], the binding result is listed as “binds”.

B1: CoAlated unphosphorylated C247V + C319V t-Aurora A (domain or fragment, UniProt Q9ULW0 7-20, looked up)
chain: SYSYDAPSDFINFSSKQKNEESKKRQWALEDFEIGRPLGKGKFGNVYLAREKQSKFILALKVLFKAQLEKAGVEHQLRREVEIQSHLRHPNILRLYGYFHDATRVYLILEYAPLGTVYRELQKLSKFDEQRTATYITELANALSYVHSKRVIHRDIKPENLLLGSAGELKIADFGWSVHAPSSRRTTLCGTLDYLPPEMIEGRMHDEKVDLWSLGVLVYEFLVGKPPFEANTYQETYKRISRVEFTFPDFVTEGARDLISRLLKHNPSQRPMLREVLEHPWITANSSK
modifications: coenzyme A disulfide adduct (CoAlation) on Cys290 on approximately two thirds of the protein; unphosphorylated
For the molecule B1, the binding result in the series “crystal structure” was “binds”.

B2: t-Aurora A C247V + D256N + C319V kinase-dead mutant (Cys290-Cys290 disulfide homodimer) (domain or fragment, UniProt Q9ULW0 7-20, looked up)
chain: SYSYDAPSDFINFSSKQKNEESKKRQWALEDFEIGRPLGKGKFGNVYLAREKQSKFILALKVLFKAQLEKAGVEHQLRREVEIQSHLRHPNILRLYGYFHDATRVYLILEYAPLGTVYRELQKLSKFDEQRTATYITELANALSYVHSKRVIHRNIKPENLLLGSAGELKIADFGWSVHAPSSRRTTLCGTLDYLPPEMIEGRMHDEKVDLWSLGVLVYEFLVGKPPFEANTYQETYKRISRVEFTFPDFVTEGARDLISRLLKHNPSQRPMLREVLEHPWITANSSK
modifications: disulfide bond between Cys290 of the two monomers
As to B2, the binding result in “crystal structure” is “binds”.

B3: t-Aurora A C247V + C319V double mutant, unphosphorylated, catalytically active (used for the disulfide homodimer) (domain or fragment, UniProt Q9ULW0 7-20, looked up)
chain: SYSYDAPSDFINFSSKQKNEESKKRQWALEDFEIGRPLGKGKFGNVYLAREKQSKFILALKVLFKAQLEKAGVEHQLRREVEIQSHLRHPNILRLYGYFHDATRVYLILEYAPLGTVYRELQKLSKFDEQRTATYITELANALSYVHSKRVIHRDIKPENLLLGSAGELKIADFGWSVHAPSSRRTTLCGTLDYLPPEMIEGRMHDEKVDLWSLGVLVYEFLVGKPPFEANTYQETYKRISRVEFTFPDFVTEGARDLISRLLKHNPSQRPMLREVLEHPWITANSSK
In the case of B3, the binding result in “cross-linking” was “binds”.
